Data: patent EP4477673A1, “IMMUNOCONJUGATE AND USE THEREOF” (priority 2022, dated 2023)

How the values were obtained:
IL-2Rβ/γ on M07e cells [1] = biological target: T1, IL-2Rβ/γ on M07e cells (human, UniProt P14784 27-551; P31785 23-369); test: cell-based or functional assay
T1 sequence (looked up) 1: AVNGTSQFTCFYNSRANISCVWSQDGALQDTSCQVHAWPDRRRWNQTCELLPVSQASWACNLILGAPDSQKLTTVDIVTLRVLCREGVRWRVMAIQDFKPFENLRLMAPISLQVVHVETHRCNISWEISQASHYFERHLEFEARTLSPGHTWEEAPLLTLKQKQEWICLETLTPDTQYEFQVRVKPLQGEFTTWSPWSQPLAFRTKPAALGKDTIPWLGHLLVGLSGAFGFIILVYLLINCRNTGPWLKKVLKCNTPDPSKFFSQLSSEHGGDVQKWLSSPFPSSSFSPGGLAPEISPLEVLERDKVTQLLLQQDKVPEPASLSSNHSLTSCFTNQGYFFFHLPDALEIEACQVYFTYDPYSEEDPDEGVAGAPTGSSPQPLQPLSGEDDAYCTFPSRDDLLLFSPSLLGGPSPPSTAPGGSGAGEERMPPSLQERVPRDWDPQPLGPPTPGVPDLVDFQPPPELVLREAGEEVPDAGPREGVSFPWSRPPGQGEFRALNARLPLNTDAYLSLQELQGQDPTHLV
T1 sequence (looked up) 2: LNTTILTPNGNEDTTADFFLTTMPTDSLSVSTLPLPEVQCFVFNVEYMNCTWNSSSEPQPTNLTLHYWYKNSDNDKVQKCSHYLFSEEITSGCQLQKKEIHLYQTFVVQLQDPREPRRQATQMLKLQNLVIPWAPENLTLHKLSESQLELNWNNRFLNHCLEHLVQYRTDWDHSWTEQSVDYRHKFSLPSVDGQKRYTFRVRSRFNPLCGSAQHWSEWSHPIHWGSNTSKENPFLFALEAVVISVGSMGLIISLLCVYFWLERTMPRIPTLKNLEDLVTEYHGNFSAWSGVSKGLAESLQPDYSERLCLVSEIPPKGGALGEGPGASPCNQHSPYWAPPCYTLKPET

IL-2Rβ/γ on M07e cells [2] = biological target: T1, IL-2Rβ/γ on M07e cells; test: cell-based or functional assay; remark: listed apart in the source
IL-2Rβ/γ on M07e cells [3] = biological target: T1, IL-2Rβ/γ on M07e cells; test: cell-based or functional assay; remark: listed apart in the source
human PD-1 [4] = biological target: T2, human PD-1 (human, UniProt Q15116 25-288); test: cell-based or functional assay
T2 sequence (Q15116 25-288 limits assumed): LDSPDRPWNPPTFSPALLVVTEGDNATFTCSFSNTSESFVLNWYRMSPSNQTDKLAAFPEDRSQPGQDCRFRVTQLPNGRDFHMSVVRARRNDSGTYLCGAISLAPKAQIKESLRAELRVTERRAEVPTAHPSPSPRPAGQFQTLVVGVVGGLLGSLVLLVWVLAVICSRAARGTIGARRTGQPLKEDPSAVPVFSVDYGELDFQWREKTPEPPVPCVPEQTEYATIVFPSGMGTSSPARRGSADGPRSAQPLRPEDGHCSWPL

human PD-1 [5] = biological target: T2, human PD-1; test: flow cytometry on Jurkat cells overexpressing human PD-1
[6] = biological target: T3, Human PD-1 protein (His Tag) (human, UniProt Q15116 25-167); test: ELISA, plate coated with human PD-1 (his tag), anti-human IgG4 Fc-HRP
T3 construct: also called PD1-H5221; PD-1 antigen; not shown: His tag
T3 sequence (Q15116 25-167): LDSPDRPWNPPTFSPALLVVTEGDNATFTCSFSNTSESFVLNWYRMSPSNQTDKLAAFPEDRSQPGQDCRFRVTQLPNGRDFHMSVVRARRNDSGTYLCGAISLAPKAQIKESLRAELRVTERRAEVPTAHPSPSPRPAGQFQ

B1: PEGylated IL-2 mutant (PEG-IL-2v) (ligand)
chain: APASSSTKKTQLQLEHLLLDLQMILQGISNYKNPKLTRMLTAKFYMPKKATELKHLQCLEEELKPLEEVLQGAQSKNFHLRPRDLISNINVIVLELKGSETTFMCEYADETATIVEFLNRWITFAQSIISTLT
modifications: PEGylated (site not stated)
IL-2Rβ/γ on M07e cells [1]
  M07e proliferation, EC50: 20.9 nM
  M07e proliferation, Maximal fluorescence value (Max Lum): 4.45e+06 Lum
  M07e-hPD1 proliferation, EC50: 13.3 nM
  M07e-hPD1 proliferation, Maximal fluorescence value (Max Lum): 7.94e+06 Lum
IL-2Rβ/γ on M07e cells [2]
  M07e cell proliferation activity (%) at 0.46 nM: 0.7%
  M07e cell proliferation activity (%) at 1.4 nM: 2.6%
  M07e cell proliferation activity (%) at 4.1 nM: 11.2%
  M07e cell proliferation activity (%) at 12 nM: 34.2%
  M07e cell proliferation activity (%) at 37 nM: 68.2%
  M07e cell proliferation activity (%) at 111 nM: 88.3%
  M07e cell proliferation activity (%) at 333 nM: 102%
  M07e cell proliferation activity (%) at 1000 nM: 89%
  M07e-hPD-1 cell proliferation activity (%) at 0.0001 nM: 1.9%
  M07e-hPD-1 cell proliferation activity (%) at 0.001 nM: 1.1%
  M07e-hPD-1 cell proliferation activity (%) at 0.01 nM: 0.5%
  M07e-hPD-1 cell proliferation activity (%) at 0.1 nM: 0.4%
  M07e-hPD-1 cell proliferation activity (%) at 1 nM: 3.3%
  M07e-hPD-1 cell proliferation activity (%) at 10 nM: 33.3%
  M07e-hPD-1 cell proliferation activity (%) at 100 nM: 104%
  M07e-hPD-1 cell proliferation activity (%) at 1000 nM: 100%
IL-2Rβ/γ on M07e cells [3]
  M07e-hPD-1 cell proliferation ratio (%) at 0.0001 nM: -2.2%
  M07e-hPD-1 cell proliferation ratio (%) at 0.001 nM: -2.1%
  M07e-hPD-1 cell proliferation ratio (%) at 0.01 nM: -2.6%
  M07e-hPD-1 cell proliferation ratio (%) at 0.1 nM: -2.2%
  M07e-hPD-1 cell proliferation ratio (%) at 1 nM: -0.6%
  M07e-hPD-1 cell proliferation ratio (%) at 10 nM: 24.4%
  M07e-hPD-1 cell proliferation ratio (%) at 100 nM: 76.7%
  M07e-hPD-1 cell proliferation ratio (%) at 1000 nM: 89.1%

B2: A6_hIgG4 (antibody, V domains shown)
VH: EVQLVESGGGLVQAGGSLRLSCAVSGRTFSSAAMGWFRQAPGKEREFVAAISWSFGSTYYADSVKGRFTISRDNAKNTVYLQMNSLKPEDTAVYYCAADPSIETMGGGWDYWGQGTQVTVSS
Human PD-1 [4]
  IC50, PD-1/PD-L1 NFAT reporter gene system: 1.35 nM
Human PD-1 [5]
  EC50: 1.09 nM
[6]
  EC50: 0.0861 nM
